According to US12544428B2, “Controlled-release CNP agonists with reduced side-effects” (ASCENDIS PHARMA GROWTH DISORDERS A/S, priority 2016, dated 2026):
Like-named read-outs stand apart in the source and are kept apart here.

Key:
[1] = 0.146 mg CNP-38 eq/kg
Procedure: (§1) Plasma total CNP-38 concentrations (conjugated and released CNP-38) were determined by quantification of the N-terminal signature peptide (sequence: […]) and C-terminal signature peptide (sequence: […]) after tryptic digestion.
(§2) LC-MS analysis was carried out by using an Agilent 1290 UPLC coupled to an Agilent 6550 iFunnel Q-TOF mass spectrometer via an ESI probe. Chromatography was performed on a Waters Acquity BEH300 C18 analytical column (50×2.1 mm I.D., 1.7 μm particle size) with pre-filter at a flow rate of 0.25 mL/min (T=25° C.). Water (UPLC grade) containing 0.2% formic acid (v/v) was used as mobile phase A and acetonitrile (UPLC grade) with 0.2% formic acid as mobile phase B. The gradient system comprised a short isocratic step at the initial parameters of 0.1% B for 3.0 min followed by a linear increase from 0.1% B to 16% B in 17 min. Mass analysis was performed in the single ion monitoring (SIM) mode, monitoring the ions m/z 482.75 [M+2H]^2+ (N-terminal) and m/z 824.36 [M+H]^1+ (C-terminal). As internal standard deuterated CNP-38 peptide was used.
(§3) Calibration standards of CNP-38 conjugate in blank plasma were prepared as follows: The thawed Li-heparin cynomolgous plasma was first homogenized, then centrifuged for 5 minutes. […] These solutions were used for the generation of a calibration curve.
(§4) For sample preparation, protein precipitation was carried out by addition of 300 μL of pre-cooled (0° C.) methanol to 100 μL of the plasma sample. 200 μL of the supernatant were transferred into a new well-plate and evaporated to dryness (under a gentle nitrogen stream at 35° C.). 100 μL of reconstitution solvent (Thermo digestion buffer, order number 60109-101, Thermo Fisher Scientific GmbH, Dreieich, Germany) were used to dissolve the residue. 20 μg of trypsin (order number V5111, Promega GmbH, Mannheim, Germany) were dissolved in 20 μL of 10 mM acetic acid. 2 μL of the trypsin solution were added to each cavity.
(§5) After 4 hours incubation at 37° C. (water bath), 5 μL of a 0.5 M TCEP solution were added to each cavity and incubated again for 5 min at 96° C. After the samples had cooled to room temperature, 3 μL acetonitrile were added. The eluates were transferred into vials. 10 μL were injected into the UPLC-MS system.
Blood samples were collected up to 168 h post dose, and plasma was generated. Plasma total CNP-38 concentrations were determined by quantification of the N-terminal signature peptide (sequence: […]) and C-terminal signature peptide (sequence: […]) after tryptic digestion as described in Materials and Methods.

[2] = 0.146 mg CNP-38 eq/kg; remark: listed apart in the source
Procedure: as §1, §2, §3, §4, §5
Male cynomolgus monkeys (2-4 years old, 3-5 kg) received either a single subcutaneous administration (n=3 animals) of compound 10f or a single subcutaneous (n=3 animals) administration of 11i at a dose of 0.146 mg CNP-38 eq/kg. Blood samples were collected up to 168 h post dose, and plasma was generated. Plasma levels of total CNP-38 content were analyzed as described in example 24. In order to analyze the plasma content of free CNP-38, the blood samples were acidified after withdrawal by adding 20 vol % of 0.5 M sodium citrate buffer pH 4 to stop further CNP-38 release from the conjugate. Free CNP-38 levels in plasma can e.g. be determined by ELISA using a CNP antibody that binds to the ring region of CNP, as described in the literature (U.S. Pat. No. 8,377,884 B2), or by LC-MS/MS.

| Substance | half life time of CNP-38 content ([1]; single intravenous injection, plasma total CNP-38) | CNP-38 tmax ([1]; single intravenous injection, plasma total CNP-38, earliest time point analyzed) [h] | dose site reactions ([1]; single iv or sc dose) | tolerability of dose administrations ([1]; single iv or sc dose) | CNP-38 concentration at 168 h ([1]; single subcutaneous injection) | CNP-38 tmax ([1]; single subcutaneous injection, plasma total CNP-38) [h] | bioavailability ([1]; subcutaneous vs intravenous) | dose site reactions ([2]; single sc) | tolerability of dose administrations ([2]; single sc) | Total CNP-38 plasma levels after 120 h ([2]; single sc, C-terminal peptide, below LOQ) [ng/mL] | total CNP-38 tmax ([2]; single subcutaneous administration) [h] |
| --- | --- | --- | --- | --- | --- | --- | --- | --- | --- | --- | --- |
| Permanent Lys26 CNP-38 PEG4×10 kDa Conjugate [Compound 12g] | approx. 24 h | 0.25 | No dose site reactions were observed | well tolerated | ca. 50 % of cmax | 48 | ca. 50% |  |  |  |  |
| Reversible Lys26 CNP-38 PEG2×20 kDa Conjugate [Compound 10f] |  |  |  |  |  |  |  | No dose site reactions were observed | well tolerated | < 100 | 12 |
